Reference: patent US12024544B2, “CCN3 and CCN3 peptides and analogs thereof for therapeutic use” (Rosalind Franklin University of Medicine & Science, priority 2010, dated 2024)
Entries after “also recorded” stand apart in the source; their conditions may differ.

Columns and labels:
[1] = system: TIMP-1; assay: TIMP-1 production by human skin fibroblasts; format: cell-based
From the text: (§1) To test this we used a cell culture model of skin healing/scarring, which employed the use of primary human skin fibroblasts derived from foreskins collected post circumcision. These have been used extensively in the past to grown in culture and treated with agents that are known to drive wound healing and or scarring. We were also interested in a rare form of skin fibrosis/scarring that can lead to systemic disease and death known as nephrogenic systemic fibrosis (NSF). NSF is a complication of NMR diagnostics in renal impaired patients, where gadolinium (GAD), a heavy metal, is used as a contrast agent, but in some cases appears to deposit in skin. Although the mechanism for development of skin fibrosis and subsequent systemic disease is not yet completely understood, we have developed a model that has allowed elucidation of the probable pathway to skin fibrosis (Bhagavathula, N., M. K. Dame, M. DaSilva, W. Jenkins, M. N. Aslam, P. Perone and J. Varani (2010)). “Fibroblast response to gadolinium: role for platelet-derived growth factor receptor.” Invest Radiol 45(12): 769-777). This disease is characterized as a hyperproliferative disease, and in our model it was shown that PDGF produced by resident skin fibroblasts are stimulated by GAD to increase their production of PDGF which acts to induce proliferation and the increased production of MMPs, regulators of ECM breakdown and thus turnover, including the major MMP, MMP-1. At the same time tissue inhibitors of MMPs (TIMPs) are also affected by exposure to GAD. […] It appears that local fibroblasts then respond to this increased TGF-beta by increasing their production of ECM, including predominantly collagen type 1.
(§2) We examined the role of CCN3 and CCNp in fibroproliferative/fibrotic responses in human dermal fibroblasts exposed to Omniscan, one of the gadolinium-based contrast agents associated with development of nephrogenic systemic fibrosis. These studies were carried out as we have previously described (Riser, B. L., N. Bhagavathula, P. Perone, K. Garchow, Y. Xu, G. J. Fisher, F. Najmabadi, D. Attili and J. Varani (2012)). “Gadolinium-induced fibrosis is counter-regulated by CCN3 in human dermal fibroblasts: a model for potential treatment of nephrogenic systemic fibrosis.” J Cell Commun Signal 6(2): 97-105.). In our studies, human dermal fibroblasts were exposed to Omniscan; or to PDGF and TGF-β1 as controls. Cellular proliferation was assessed along with MMP-1 (by ELISA and gelatin zymography), TIMP-1 (by ELISA) and COL1 (by ELISA) in the absence and presence of CCN3 and CCNp. CCN3 and CCNp38 was added to cells at 10 nM concentration and at the same time as PDGF. In parallel, CCN3 production was assessed in control and Omniscan-treated cells. In most case the results shown (each bar) are the mean of 3-5 separate experiments, using fibroblasts from different donors. CCN3 was produced in our laboratory from the human embryonic kidney cell line (HEK-293) transfected with the complete human CCN3 gene, and producing an approximate 55 kDa, full-length CCN3 product. A second source of CCN3 was obtained from Pepro Tech Corporation (Rocky Hill, NJ) and is produced in a prokaryote cell line.
Next we created and tested for efficacy, additional CCNp including those with the cysteines intact (native sequence) from CCNp37 and CCNp38 and those that were modified by either shortening the peptide by 1 or 2 amino acids or lengthening by one amino acid. […]

[2] = system: BTBR Ob/Ob mouse; assay: BTBR Ob/Ob mouse as model of liver disease; format: in vivo; conditions: 8 weeks of treatment
Description: This was carried out using the BTBR Ob/Ob mouse strain that has a defective leptin receptor that results in increased appetite. As a result it rapidly gains weight over the control strain and becomes hyperglycemic at about one month of age, going on to develop renal disease resembling that in humans. This is regarded by some to be the rodent model best mirroring renal disease in humans as a complication of diabetes. Animals were treated with either rCCN3 (SEQ. ID. NO: 67) or CCNp38 (SEQ. ID. NO: 38) beginning at 9 weeks of age, when early renal disease has been documented. The disease was allowed to develop for 9 weeks, then treatment started. Mice were treated 3 times per week for 8 weeks. At 17 weeks, blood and urine were collected, and animals sacrificed with organ samples collected. The effect of treatment with either CCN3 (2 concentrations, 2 or 20× the circulating amounts) or mimic peptide (CCNp38, 2 concentrations, 20 or 200× the equivalent molar circulating concentration of CCN3) was tested. Assays to determine the effect of CCN3 or peptide on expression of target fibrosis genes and clinical pathology were determined using methods as previously described (Riser, Amer J Pathology 2009) and (McIntosh, L M, et al., Selective CCR2-targeted macrophage depletion ameliorates experimental mesangioproliferative glomerulonephritis, Clinical and Experimental Immunology, 2008, 155, 295-303).
Since a common complication of diabetes is fatty liver, hepatitis, NASH, and in some cases liver fibrosis, we used the BTBR Ob/Ob mouse experiments described above as a model of human liver disease to examine the possibility that CCN3 or more particularly CCNp peptides might provide a treatment to prevent, treat, or reverse the liver disease described above.

[3] = system: MMP-1; assay: MMP-1 production by human skin fibroblasts; format: cell-based
From the text: as §1, §2
(§3) Next we created and tested for efficacy, additional CCNp including those with the cysteines intact (native sequence) from CCNp37 and CCNp38 and those that were modified by either shortening the peptide by 1 or 2 amino acids or lengthening by one amino acid. These agents were added to human skin fibroblasts in increasing concentrations from 1 nM to 100 nM and compared to the equal concentration of CCN3 (SEQ. ID. NO: 67). They were added just prior to the addition of either TGF-beta or PDGF, depending on the experiment.

[4] = system: CCN2 receptor; assay: adhesion of mesangial cells to CCN2 coated plates; format: cell-based, rat; conditions: 27 nM, rodent mesangial cells
From the text: The peptides selected above, and shown in FIG. 5, were synthesized and tested in the three different in vitro assays constructed to model fibrosis, or fibrosis-related pathology in vivo for anti-fibrotic activity. These assays have been used extensively by us and by others, and are highly predictive of related responses in vivo, including those occurring in humans. One in vitro assay, i.e., of cell adhesion in vitro was used. There is a requirement for adhesion in wound healing and fibrosis, with cells responding to the binding of CCN2 to their receptors for other critical activities. Also alteration of cell attachment and receptor binding is implicated in other non-fibrotic diseases, previously named in this application. For this adhesion assay, a well of a culture plate was coated with CCN2 protein and then rat mesangial cells were added for a defined period. […] After a standard period of incubation, the cells are washed to remove non-attached cells. These adherent cells are then removed and counted to determine the percent of the total cells that adhered. The ability of each peptide to block this binding was examined by preincubating cells with the peptide of interest. Controls were used for comparison without CCN2 coating.

[5] = system: human skin fibroblasts; assay: human skin fibroblast proliferation; format: cell-based
From the text: as §1, §2, §3

B1: CCN3: full-length recombinant human CCN3 protein (SEQ. ID. No. 67), commercial (Pepro Tech) or made in HEK-293 (protein)
chain: MQVAATQRCPPQCPGRCPATPPTCAPGVRAVLDGCSCCLVCARQRGESCSDLEPCDESSGLYCDRSADPSNQTGICTAVEGDNCVFDGVIYRSGEKFQPSCKFQCTCRDGQIGCVPRCQLDVLLPEPNCPAPRKVEVPGECCEKWICGPDEEDSLGGLTLAAYRPEATLGVEVSDSSVNCIEQTTEWTACSKSCGMGFSTRVTNRNRQCEMLKQTRLCMVRPCEQEPEQPTDKKGKKCLRTKKSLKAIHLQFKNCTSLHTYKPRFCGVCSDGRCCTPHNTKTIQAEFQCSPGQIVKKPVMVIGTCTCHTNCPKNNEAFLQELELKTTRGKM
- block of PDGF stimulated TIMP-1 production ([1]; FIGS. 28-30): unable to block the increase in TIMP-1
- block of PDGF-induced increase in TIMP-1 production ([1]; PDGF, 10 nM, FIG. 19): neither CCNp38-3 (Seq. ID. No. 56) nor CCN3 (SEQ. ID. No. 67) is able to block or reduce the increase in TIMP-1 production
- effect on TIMP-1 production with TGF-beta ([1]; TGF-beta (fails to stimulate), FIG. 20): neither CCNp38-3 nor CCN3 have an effect; also recorded: neither CCNp38-3 or CCN3 have an effect
- effect on increased liver weight ([2]; FIG. 41): slightly reduces this increase
- effect on increased liver mRNA levels for CCN2 ([2]; liver, two doses, FIG. 42): greatly reduces or blocks the increase in a dose-dependent manner
- effect on increased liver mRNA levels for Col1A2 ([2]; liver, two doses, FIG. 43): dose-dependently reduced, or blocked the increase in collagen expression; also recorded: reduced
- block of PDGF stimulated MMP-1 production ([3]; 1 nM, FIG. 25): able to block little or no MMP-1 production
- reduction in PDGF stimulated MMP-1 production ([3]; 10 nM, FIG. 26): 27%
- reduction in PDGF stimulated MMP-1 production ([3]; 100 nM, FIG. 27): 30%
- block of PDGF-induced increase in MMP-1 activity ([3]; PDGF, 10 nM, FIG. 17): able to block that increase
- effect on MMP-1 with TGF-beta ([3]; TGF-beta (no stimulating effect), FIG. 18): no effect
- inhibition of cellular adhesion to CCN2 coated plates [4]: some inhibition
- inhibition of PDGF-stimulated proliferation, comparison of modifications ([5]; 1 nM to 100 nM, FIGS. 22-24): dose-dependent efficacy
- reduction in PDGF-stimulated proliferation ([5]; 1 nM, FIG. 22): slightly decreased proliferation
- reduction in PDGF-stimulated proliferation ([5]; 10 nM, FIG. 23): 33%
- reduction in PDGF-stimulated proliferation ([5]; 100 nM, FIG. 24): 46%
- block of PDGF-stimulated fibroblast proliferation ([5]; PDGF, 10 nM, FIG. 15): this stimulation is blocked
- effect on baseline cell growth ([5]; TGF-beta (does not stimulate proliferation), FIG. 16): neither CCN3 (SEQ. ID. No. 67) nor CCNp38-3 (Seq. ID. No. 56) has an effect on baseline cell growth
